Literature values, collected in patent US20060198900A1, “Bioactive Agent Compositions for Repair of Cell Injuries” (Nutritional Bioscience Limited, priority 2004, published 2006).

Tested on: gastric damage
Conditions: Playford et al. 1995

B1: hSP: recombinant human spasmolytic polyptide (hSP) (protein, UniProt Q03403 24-129, looked up)
Trefoil factor 2: EKPSPCQCSRLSPHNRTNCGFPGITSDQCFDNGCCFDSSVTGVPWCFHPLPKQESDQCVMEVSDRRNCGYPGISPEECASRKCCFSNFIFEVPWCFFPKSVEDCHY
For B1, the “reduction of gastric damage” value is given as 50%.
